For assay [1], the target named is recombinant human TNF (hTNF) (human) (UniProt P01375). The experiment in a line: cell-based or functional assay. To be noted: scale: ratio EC50 ESBA105 / EC50 test, in mass units [ng/ml].
Assay [2] addresses recombinant human VEGF165 (PeproTech EC Ltd.) (human) (UniProt P15692). The experiment in a line: SPR BIAcore T100, hVEGF165 amine-coupled on CM4 chip, scFv as analyte. Background: In SPR one partner is held on a chip, and binding of the other changes the refractive index at the surface.
Assay [3] deals with VEGF (as used in the VEGFR competition ELISA). The experiment in a line: competition ELISA against hVEGR1, EC50 ratio to reference Luc. On the technique in general: In an ELISA, binding on a coated surface is turned into a signal by an enzyme label.
Chain of VEGF (as used in the VEGFR competition ELISA) (P15692 whole entry): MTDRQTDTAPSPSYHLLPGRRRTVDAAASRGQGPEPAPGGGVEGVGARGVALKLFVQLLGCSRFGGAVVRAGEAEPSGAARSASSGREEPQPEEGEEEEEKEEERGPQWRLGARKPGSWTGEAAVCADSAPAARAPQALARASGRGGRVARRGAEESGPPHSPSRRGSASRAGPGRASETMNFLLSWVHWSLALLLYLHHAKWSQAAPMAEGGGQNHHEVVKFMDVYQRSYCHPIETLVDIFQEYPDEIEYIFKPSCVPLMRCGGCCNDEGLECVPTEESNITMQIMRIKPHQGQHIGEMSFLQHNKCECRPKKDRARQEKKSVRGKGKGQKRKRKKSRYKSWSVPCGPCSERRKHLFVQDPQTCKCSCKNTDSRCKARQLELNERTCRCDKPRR

Broadly, the Kd is the equilibrium constant for the complex coming apart. The koff is the rate constant with which the complex falls apart. As a reminder, the kon is the second-order rate constant of association.

Chain of recombinant human TNF (hTNF) (human) (P01375 77-233 limits assumed): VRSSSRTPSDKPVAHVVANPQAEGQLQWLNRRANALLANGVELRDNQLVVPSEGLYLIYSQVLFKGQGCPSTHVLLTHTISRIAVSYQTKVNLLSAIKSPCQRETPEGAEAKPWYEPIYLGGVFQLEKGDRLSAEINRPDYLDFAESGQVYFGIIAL
Chain of recombinant human VEGF165 (PeproTech EC Ltd.) (human) (P15692 other isoform, or with tags, fused parts or gaps limits assumed): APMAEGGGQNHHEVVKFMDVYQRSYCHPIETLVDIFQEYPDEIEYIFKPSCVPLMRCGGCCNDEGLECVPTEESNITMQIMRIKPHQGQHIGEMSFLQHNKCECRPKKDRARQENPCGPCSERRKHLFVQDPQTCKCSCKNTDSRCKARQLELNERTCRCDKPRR

B1: EP35_max (scFv, from another filing)
scFv: EIVMTQSPSTLSASVGDRVIITCQASQSISNLLAWYQQKPGKAPKLLIVAASKLASGVPSRFSGSGSGTEFTLTISSLQPDDFATYYCQQGWSHTNVDNTFGQGTKLTVLGGGGGSGGGGSGGGGSGGGGSEVQLVESGGGSVQPGGSLRLSCTASGFSFSVGYWICWVRQAPGKGLEWVACIDAGTSGGTYYATWAKGRFTISKDTSKNTVYLQMNSLRAEDTATYYCARGVSSNGYYFKLWGQGTTVTVSS
For the molecule B1, the L929* [EC50-E105 / EC50-X] in assay [1] was 5.2.

B2: EP15_max (scFv, from another filing)
scFv: EIVMTQSPSTLSASVGDRVIITCQASENIYTSLAWYQQKPGKAPKLLIYSASTLASGVPSRFSGSGSGTEFTLTISSLQPDDFATYYCQQGFATSNVENPFGQGTKLTVLGGGGGSGGGGSGGGGSGGGGSEVQLVESGGGSVQPGGSLRLSCTVSGFSLSRYGVSWVRQAPGKGLEWVGAIGETGRAYYANWAKSRSTISRDTSKNTVYLQMNSLRAEDTATYYCARGEEFNNGWGAFNIWGQGTTVTVSS
B2: the L929* [EC50-E105 / EC50-X] in assay [1] came to 0.39.

B3: EP6_max (scFv, from another filing)
scFv: EIVMTQSPSTLSASVGDRVIITCQASESIYSGLAWYQQKPGKAPKLLIYQASTLASGVPSRFSGSGSGTDFTLAISSLQPDDFATYYCQQGFGTSNVENPFGQGTKLTVLGGGGGSGGGGSGGGGSGGGGSEVQLVESGGGLVQPGGSLRLSCTVSGFSLSRYGVSWVRQAPGKGLEWVGTIGEAGRAYYANWARSRSTISRDTSKNTVYLQMNSLRAEDTAVYYCARGEVFNNGWGAFNIWGQGTLVTVSS
As to B3, the L929* [EC50-E105 / EC50-X] in assay [1] was 1.1.

B4: 509-maxll (scFv, from another filing)
scFv: EIVMTQSPSTLSASVGDRVIITCQASQNIRIWLSWYQQKPGKAPKLLIYKASTLESGVPSRFSGSGSGTEFTLTISSLQPDDFATYYCQNNAHYSTNGGTFGQGTKLTVLGGGGGSGGGGSGGGGSGGGGSEVQLVESGGGLVQPGGSLRLSCTASGFSLSSYYMSWVRQAPGKGLEWVGILDYVGDTDYASWAKGRFTISKDASKNTVYLQMNSLRAEDTAVYYCARTDDSRGWGLNIWGQGTLVTVSS
On to B4, for which, in assay [2], the Kd came out at 3.37 nM, the koff amounted to 0.00282 s⁻¹ and the on-rate (kon) turned out to be 838000 M⁻¹ s⁻¹. In addition, the Rel. activity hVEGR1 comp. ELISA (EC50Luc[nM]/EC50test[nM]) in assay [3] was 0.09.

B5: EP43_max (scFv, from another filing)
scFv: EIVMTQSPSTLSASVGDRVIIKCQASQSISDWLAWYQQKPGKAPKLLIYGASRLASGFPSRFSGSGSGAEFTLTISGLEPADFATYYCQQGWSDSYVDNLFGQGTKLTVLGGGGGSGGGGSGGGGSGGGGSEVQLVESGGGLVQPGGSLRLSCTVSGFSLSSGAMSWVRQAPGKGLEWVGVIISSGATYYASWAKGRFTISKDTSKNTVYLQMNSLRAEDTAVYYCARGGPDDSNSMGTFDPWGQGTLVTVSS
Consider B5, for which the L929* [EC50-E105 / EC50-X] in assay [1] worked out at 6.4.

B6: EP34_max (scFv, from another filing)
scFv: EIVMTQSPSTLSASLGDRVIITCQSSQSVYGNIWMAWYQQKSGKAPKLLIYQASKLASGVPSRFSGSGSGAEFSLTISSLQPDDFATYYCQGNFNTGDRYAFGQGTKLTVLGGGGGSGGGGSGGGGSGGGGSEVQLVESGGGLVQPGGSLRLSCTASGFTISRSYWICWVRQAPGKGLEWVACIYGDNDITPLYANWAKGRFPVSTDTSKNTVYLQMNSLRAEDTAVYYCARLGYADYAYDLWGQGTLVTVSS
With B6, the L929* [EC50-E105 / EC50-X] in assay [1] stood at 10.5.

Values taken from patent publication EP3964526A1.
